Data on 77 sequences can be found in the supplement of paper PMC7877785.

A short description of the data set: self-splicing fitness, log relative to wild type (ln ratio); higher = more splicing; Tetrahymena group I intron in knt gene, E. coli kanamycin selection, DiMSum; sequences stand for … in CUCUCU…GGAGGGAAAAGUUAUCAGGCAUGCACCUGGUAGCUAGUCUUUAAACCAAUAGAUUGCAUCGGUUUAAAAGGCAAGACCGUCAAAUUGCGGGAAAGGGGUCAACAGCCGUUCAGUACCAAGUCUCAGGGGAAACUUUGAGAUGGCCUUGCAAAGGGUAUGGUAAUAAGCUGACGGACAUGGUCCUAACCACGCAGCCAAGUCCUAAGUCAACAGAUCUUCUGUUGAUAUGGAUGCAGUUCACAGACUAAAUGUCGGUCGGGGAAGAUGUAUUCUUCUCAUAAGAUAUAGUCGGACCUCUCCUUAAUGGGAGCUAGCGGAUGAAGUGAUGCAACACUGGAGCCGCUGGGAACUAAUUUGUAUGCGAAAGUAUAUUGAUUAGUUUUGGAGUACUCGUGGUCG
The method, boiled down: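 A randomised library covering all eight P1ex-region intron nucleotides was built with the intron in the knt kanamycin-resistance gene on pET-22b(+) and held in E. coli BL21(DE3). Cells were grown overnight at 37°C or 30°C on LB agar, with or without 25 μg/mL kanamycin, plus 100 μg/mL carbenicillin, 50 μM IPTG and 0.2% rhamnose, and pooled colonies were amplicon-sequenced on an Illumina HiSeq 2500. DiMSum fitness is the error-weighted combination of wild-type-normalised replicate fold changes, kanamycin versus none.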

± gives the uncertainty stated by the source.

Turning to GUUCAGCAAUAUUACGCCUC, the “self-splicing fitness (ln)” value is -0.427 ± 0.14 (30 °C) and 0.0352 ± 0.16 (37 °C).
The corresponding values for GGCGAGCAAUAUUACGAUCU are -0.834 ± 0.12 and 0.229 ± 0.14.
Take AUCGAGCAAUAUUACGAGCA: the “self-splicing fitness (ln)” value by setting is: (30 °C) -1.2 ± 0.12; (37 °C) -0.963 ± 0.14.
On the same counts, the results for AGACAGCAAUAUUACGUAUU are -2.58 ± 0.11 and -1.4 ± 0.12.
Turning to GGAGAGCAAUAUUACGUGCU, the “self-splicing fitness (ln)” value (30 °C) is -2.88 ± 0.27.
With GAGGAGCAAUAUUACGAAGA, the “self-splicing fitness (ln)” value is -2.19 ± 0.24 (30 °C) and -1.95 ± 0.32 (37 °C).
On the same counts, the results for CUGUAGCAAUAUUACGUAGU are -4.78 ± 0.36 and -2.65 ± 0.35.
For CCACAGCAAUAUUACGACGC, the “self-splicing fitness (ln)” value was -3.76 ± 0.33 (30 °C) and -2.08 ± 0.35 (37 °C).
On the same counts, the results for AUAAAGCAAUAUUACGCCUU are -0.274 ± 0.094 and 0.0912 ± 0.12.
Regarding AGAAAGCAAUAUUACGUUAC, the “self-splicing fitness (ln)” value by setting is: (30 °C) -3.26 ± 0.19; (37 °C) -1.89 ± 0.18.
Consider GGUUAGCAAUAUUACGUCAA, for which the “self-splicing fitness (ln)” value reads like this: (30 °C) -0.285 ± 0.11; (37 °C) -0.43 ± 0.13.
As to UAGUAGCAAUAUUACGUUAG, the “self-splicing fitness (ln)” value was -1.52 ± 0.17 (30 °C) and -1.97 ± 0.21 (37 °C).
On the same counts, the results for UCGUAGCAAUAUUACGGCUU are -2.85 ± 0.46 and -1.64 ± 0.33.
For the sequence GCCAAGCAAUAUUACGCGAU, the “self-splicing fitness (ln)” value was -3.73 ± 0.14 (30 °C) and -2.64 ± 0.18 (37 °C).
The corresponding values for AGCUAGCAAUAUUACGCCAU are -1.92 ± 0.31 and -1.91 ± 0.43.
Consider AUCGAGCAAUAUUACGGCAU, for which the “self-splicing fitness (ln)” value was -0.455 ± 0.098 (30 °C) and -0.101 ± 0.1 (37 °C).
For AUUCAGCAAUAUUACGUUCG, the “self-splicing fitness (ln)” value by setting is: (30 °C) -0.646 ± 0.06; (37 °C) -0.898 ± 0.094.
Consider CACGAGCAAUAUUACGCGAA, for which the “self-splicing fitness (ln)” value is, setting by setting: (30 °C) -2.93 ± 0.28; (37 °C) -2.1 ± 0.26.
The corresponding values for ACUGAGCAAUAUUACGACUG are -3.2 ± 0.34 and -1.68 ± 0.23.
On the same counts, the results for CCCCAGCAAUAUUACGAUUC are -3.81 ± 0.2 and -2.46 ± 0.23.
On the same counts, the results for GCCAAGCAAUAUUACGUAAC are -1.35 ± 0.087 and -0.157 ± 0.11.
In the case of CAUUAGCAAUAUUACGACAU, the “self-splicing fitness (ln)” value is -3.364 ± 0.024 (30 °C) and -1.97 ± 0.036 (37 °C).
On the same counts, the results for UAUGAGCAAUAUUACGAGUU are -3.21 ± 0.17 and -2.57 ± 0.24.
Regarding UGCUAGCAAUAUUACGCCUG, the “self-splicing fitness (ln)” value is, setting by setting: (30 °C) -0.427 ± 0.18; (37 °C) 0.294 ± 0.2.
The corresponding values for GUGCAGCAAUAUUACGGUGG are -1.63 ± 0.11 and -1.16 ± 0.13.
Take UGGGAGCAAUAUUACGCAGA: the “self-splicing fitness (ln)” value reads like this: (30 °C) -1.08 ± 0.48; (37 °C) -3 ± 0.35.
On the same counts, the results for GGGCAGCAAUAUUACGCUAU are -1.13 ± 0.077 and -0.411 ± 0.094.
On to CAAAAGCAAUAUUACGCCCC, for which, where the note is “30 °C”, the “self-splicing fitness (ln)” value was -3.27 ± 0.3.
Same read-out and setting: to UUGGAGCAAUAUUACGGUCG belongs -2.36 ± 0.28.
For the sequence UAGAAGCAAUAUUACGACCG, the “self-splicing fitness (ln)” value (30 °C) was -0.345 ± 0.18 and the “self-splicing fitness (ln)” value (37 °C) was -0.138 ± 0.25.
Regarding GGGUAGCAAUAUUACGGCAA, the “self-splicing fitness (ln)” value is, setting by setting: (30 °C) -0.369 ± 0.24; (37 °C) -0.33 ± 0.28.
On the same counts, the results for CAUUAGCAAUAUUACGUCAG are -0.381 ± 0.091 and -0.0898 ± 0.098.
The corresponding values for UGUAAGCAAUAUUACGAUUG are -1 ± 0.081 and -0.574 ± 0.097.
Regarding UGAAAGCAAUAUUACGUGGG, the “self-splicing fitness (ln)” value runs as follows: (30 °C) -3.67 ± 0.2; (37 °C) -2.4 ± 0.17.
On the same counts, the results for GCCGAGCAAUAUUACGUUUU are -3.18 ± 0.18 and -1.75 ± 0.14.
On the same counts, the results for UCCUAGCAAUAUUACGAUAC are -3.42 ± 0.35 and -2.41 ± 0.44.
On the same counts, the results for AUUCAGCAAUAUUACGGGGG are -2.77 ± 0.15 and -2.14 ± 0.16.
Take AGGGAGCAAUAUUACGUUCU: for the setting “30 °C”, the “self-splicing fitness (ln)” value was -3.19 ± 0.44.
Take UUUGAGCAAUAUUACGUGCA: the “self-splicing fitness (ln)” value was -3.05 ± 0.21 (30 °C) and -1.96 ± 0.18 (37 °C).
The corresponding values for GGGCAGCAAUAUUACGCGUC are -2.55 ± 0.4 and -1.71 ± 0.31.
Regarding UCCUAGCAAUAUUACGCCGC, the “self-splicing fitness (ln)” value (30 °C) is -3.1 ± 0.26 and the “self-splicing fitness (ln)” value (37 °C) is -3.49 ± 0.35.
For GGAUAGCAAUAUUACGAUCC, the “self-splicing fitness (ln)” value (30 °C) is -1.95 ± 0.45.
With AGACAGCAAUAUUACGAGUC, the “self-splicing fitness (ln)” value is -3.06 ± 0.19 (30 °C) and -2.52 ± 0.22 (37 °C).
For the sequence CUCAAGCAAUAUUACGAGGC, the “self-splicing fitness (ln)” value runs as follows: (30 °C) -3.51 ± 0.3; (37 °C) -2.65 ± 0.27.
As for UGAGAGCAAUAUUACGUAAA, the “self-splicing fitness (ln)” value (30 °C) was -4.31 ± 0.39 and the “self-splicing fitness (ln)” value (37 °C) is -2.43 ± 0.45.
Consider CUGCAGCAAUAUUACGGUUA, for which the “self-splicing fitness (ln)” value by setting is: (30 °C) -2.6 ± 0.16; (37 °C) -1.03 ± 0.12.
On the same counts, the results for CUUAAGCAAUAUUACGGAGG are -2.43 ± 0.21 and -3.19 ± 0.37.
On the same counts, the results for GCCAAGCAAUAUUACGCUAA are -0.682 ± 0.099 and -1.37 ± 0.13.
UAUGAGCAAUAUUACGAUAU: the “self-splicing fitness (ln)” value was -3.47 ± 0.26 (30 °C) and -2.02 ± 0.36 (37 °C).
The corresponding values for UGCUAGCAAUAUUACGCUAA are -1.85 ± 0.13 and -1.55 ± 0.16.
Regarding AUUUAGCAAUAUUACGUAAA, the “self-splicing fitness (ln)” value (30 °C) was -2.28 ± 0.21 and the “self-splicing fitness (ln)” value (37 °C) was -1.09 ± 0.18.
On the same counts, the results for UACCAGCAAUAUUACGAACA are -0.482 ± 0.096 and -0.258 ± 0.12.
For CACGAGCAAUAUUACGGUGA, the “self-splicing fitness (ln)” value is -3.17 ± 0.23 (30 °C) and -2.98 ± 0.19 (37 °C).
On the same counts, the results for AGUCAGCAAUAUUACGAUGC are -1.04 ± 0.097 and -0.00334 ± 0.11.
On to UUGUAGCAAUAUUACGGUCG, for which the “self-splicing fitness (ln)” value is -0.458 ± 0.12 (30 °C) and -0.593 ± 0.15 (37 °C).
On the same counts, the results for AUGAAGCAAUAUUACGCUAC are -2.06 ± 0.094 and -1.86 ± 0.15.
For GCGAAGCAAUAUUACGGAGU, the “self-splicing fitness (ln)” value was -3.66 ± 0.2 (30 °C) and -3.43 ± 0.42 (37 °C).
The corresponding values for CCAAAGCAAUAUUACGUUGG are -4.54 ± 0.27 and -3.32 ± 0.29.
On the same counts, the results for CCCCAGCAAUAUUACGGCUG are -4.06 ± 0.19 and -1.99 ± 0.15.
As to GAUCAGCAAUAUUACGACAG, the “self-splicing fitness (ln)” value reads like this: (30 °C) -3.24 ± 0.23; (37 °C) -1.49 ± 0.28.
On the same counts, the results for CGAUAGCAAUAUUACGGGGG are -3.7 ± 0.3 and -1.49 ± 0.16.
Turning to AGAUAGCAAUAUUACGAGAC, the “self-splicing fitness (ln)” value (30 °C) was -3.94 ± 0.23 and the “self-splicing fitness (ln)” value (37 °C) was -2.96 ± 0.22.
On the same counts, the results for GGUGAGCAAUAUUACGACAU are -1.27 ± 0.016 and -0.567 ± 0.035.
On to GCCGAGCAAUAUUACGGCCG, for which the “self-splicing fitness (ln)” value (37 °C) is -1.7 ± 0.47.
For CGCUAGCAAUAUUACGCCGU, the “self-splicing fitness (ln)” value (30 °C) was -0.129 ± 0.17 and the “self-splicing fitness (ln)” value (37 °C) is -0.719 ± 0.18.
The corresponding values for AUCCAGCAAUAUUACGUAUC are -3.8 ± 0.27 and -2.26 ± 0.2.
On the same counts, the results for ACAUAGCAAUAUUACGGGGU are -3.67 ± 0.17 and -1.81 ± 0.14.
For CGUGAGCAAUAUUACGAGGU, the “self-splicing fitness (ln)” value is -0.426 ± 0.29 (30 °C) and -1.35 ± 0.31 (37 °C).
With GCCUAGCAAUAUUACGUUUA, the “self-splicing fitness (ln)” value runs as follows: (30 °C) -2.34 ± 0.18; (37 °C) -1.7 ± 0.14.
On the same counts, the results for CCCGAGCAAUAUUACGAUUG are -2.74 ± 0.18 and -2.63 ± 0.22.
On the same counts, the results for UACGAGCAAUAUUACGUCGA are -2.65 ± 0.42 and -1.45 ± 0.25.
The corresponding values for AUCUAGCAAUAUUACGUAUC are -3.29 ± 0.24 and -1.74 ± 0.39.
As to AGGGAGCAAUAUUACGCACU, the “self-splicing fitness (ln)” value runs as follows: (30 °C) -3.18 ± 0.4; (37 °C) -0.0242 ± 0.24.
For the sequence AUGUAGCAAUAUUACGGAUU, the “self-splicing fitness (ln)” value is, setting by setting: (30 °C) -1.57 ± 0.092; (37 °C) -0.598 ± 0.091.
GCGGAGCAAUAUUACGAGUA: the “self-splicing fitness (ln)” value reads like this: (30 °C) -3.21 ± 0.21; (37 °C) -1.82 ± 0.15.
On the same counts, the results for UUCCAGCAAUAUUACGAUCA are -1.26 ± 0.2 and -1.27 ± 0.2.
In the case of GUUUAGCAAUAUUACGCAAG, the “self-splicing fitness (ln)” value (30 °C) was -2.45 ± 0.18 and the “self-splicing fitness (ln)” value (37 °C) is -0.942 ± 0.17.
